Assay results from patent US20230357857, “NUCLEIC ACID NANOSTRUCTURES WITH TUNABLE FUNCTIONAL STABILITY” (National University of Singapore, published 2023).

Molecular target: Taq DNA polymerase (UniProt P19821 P19821:1-832)
Assay: inhibition; >80% signal with target; 1.5 mM MgCl2
Conditions: tags: Promega; partial duplex plus stabilizer hairpin

Chain of Taq DNA polymerase (P19821 whole entry, one chain of several): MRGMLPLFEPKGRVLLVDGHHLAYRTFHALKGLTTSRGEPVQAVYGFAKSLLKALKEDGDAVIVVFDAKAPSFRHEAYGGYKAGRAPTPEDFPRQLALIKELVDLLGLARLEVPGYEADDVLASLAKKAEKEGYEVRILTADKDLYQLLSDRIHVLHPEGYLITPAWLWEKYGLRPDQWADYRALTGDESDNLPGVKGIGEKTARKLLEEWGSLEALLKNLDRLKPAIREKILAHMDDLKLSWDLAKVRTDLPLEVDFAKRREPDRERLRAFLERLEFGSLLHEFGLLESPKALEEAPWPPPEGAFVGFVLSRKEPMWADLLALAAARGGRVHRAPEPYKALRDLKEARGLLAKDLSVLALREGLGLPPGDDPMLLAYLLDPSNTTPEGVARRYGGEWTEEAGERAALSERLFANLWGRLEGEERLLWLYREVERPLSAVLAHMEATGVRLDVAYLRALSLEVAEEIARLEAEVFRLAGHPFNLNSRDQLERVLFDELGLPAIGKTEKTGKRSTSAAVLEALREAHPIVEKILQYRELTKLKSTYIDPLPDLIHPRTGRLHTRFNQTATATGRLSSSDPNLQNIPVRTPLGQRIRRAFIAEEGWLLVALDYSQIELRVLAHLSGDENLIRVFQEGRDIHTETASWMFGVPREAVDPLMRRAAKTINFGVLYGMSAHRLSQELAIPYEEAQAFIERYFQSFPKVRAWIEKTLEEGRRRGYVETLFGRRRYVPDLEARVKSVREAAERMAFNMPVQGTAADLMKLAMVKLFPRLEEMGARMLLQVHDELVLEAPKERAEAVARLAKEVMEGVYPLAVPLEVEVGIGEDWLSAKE

Row | Binder | activity [% signal without target]
1 | ACTB Aptamer + ACTB specific strand (dsDNA) DNA 1: ACGCAACTAAGTGACCAATGTACAGTATTGGTC DNA 2: ACTTAGTTGCGTTACACC | < 10
2 | miR-223-5p Aptamer + miR-223 specific strand (dsDNA) DNA 1: ACAAGCTGAGTTCGCCAATGTACAGTATTGGCG DNA 2: AACTCAGCTTGTCAAATA | < 10
3 | GAPDH Aptamer + GAPDH specific strand (dsDNA) DNA 1: TTCTCAAGACGGAATCAATGTACAGTATTGATT DNA 2: CCGTCTTGAGAAACCTGC | < 10
4 | hnRNPA2B1 Aptamer + hnRNPA2B1 specific strand (dsDNA) DNA 1: TGCCTATCAGTATGACCAATGTACAGTATTGGTCA DNA 2: TACTGATAGGCAGTCTGG | < 10
5 | PCGEM1 Aptamer + PCGEM1 specific strand (dsDNA) DNA 1: CCTCAGAAATCTCGGCAATGTACAGTATTGCCG DNA 2: AGATTTCTGAGGGGAATT | < 10
6 | GAS5 Aptamer + GAS5 specific strand (dsDNA) DNA 1: TGTCTTCATGTCTAGCCAATGTACAGTATTGGCTA DNA 2: GACATGAAGACAGTTCCT | < 10
7 | miR-1827 Aptamer + miR-1827 specific strand (dsDNA) DNA 1: AGTAGATTGAATCGGACAATGTACAGTATTGTCCG DNA 2: ATTCAATCTACTGCCTCA | < 10
8 | NEAT1 Aptamer + NEAT1 specific strand (dsDNA) DNA 1: TTAGCGCCAAACTAGCAATGTACAGTATTGCTA DNA 2: GTTTGGCGCTAAACTCTT | < 10
